Source: paper PMC4560160

Assays:
[1] = biological target: human CCR5 expressed on DHFR-deficient CHO cells (CHO-CCR5) (human) (UniProt P51681)
[2] = biological target: CCR5 endogenously expressed on human blood-derived monocytes, monocyte-derived macrophages (MDMs) and T cell blasts (human (endogenous in blood monocytes, MDMs and T cell blasts)) (UniProt P51681)
[3] = biological target: CCR5 endogenously expressed on human blood-derived monocytes, monocyte-derived macrophages (MDMs) and T cell blasts (human (endogenous in blood monocytes, MDMs and T cell blasts)) (UniProt P51681); remark: listed apart in the source

CCL5, sequence (P13501 24-91): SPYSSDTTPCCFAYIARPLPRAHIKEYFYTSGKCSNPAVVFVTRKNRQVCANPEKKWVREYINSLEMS

| CCR5 down-modulation: reduction of the specific binding of each anti-CCR5 mAb to the surface of CHO-CCR5 cells after 1 h at 37°C with 100 nM CCL5, flow cytometry [1] [%] | CCR5 down-modulation on monocytes after overnight culture with 100 nM analog: reduction of the surface binding signal of MC5, 2D7 and CTC5, flow cytometry [2] [%] | CCR5 down-modulation on MDMs after overnight exposure to 100 nM ligand, detected with CTC5, flow cytometry [3] [%] | Substance |
| --- | --- | --- | --- |
| 50 | – | – | CCL5 (from UniProt P13501 24-91) (ligand) |
| – | 50 | > 50 | PSC-RANTES: Nα(n-nonanoyl)-des-Ser(1)-[L-thioprolyl(2), L-cyclohexylglycyl(3)]-RANTES(4-68) (from UniProt P13501 27-91) (ligand) |
| – | 50 | > 50 | amino-oxypentane (AOP)-RANTES (from UniProt P13501 24-91) (ligand) |
